# Measured values taken from a protein production outcome set (Wang et al. 2014).
# Assay: label from the status in PepcDB records
# 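Note: failed if final PepcDB status was selected cloned or expressed and not failed if soluble or beyond.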
row,Sequence,protein production
1,MVLSEIFRGNNEVREAARAGVQIDTVSVASASDAASAADGSGKITGAIRPSAVAGSFYPADRTALKQLINQQLDYGRKLLQQLEPTLPAGVPRAVIVPHAGYIYSGTAAALAYALLERGRGSVTRAVIVGPTHRVAVRGVACSTAAAFETPLGTVPVDIAAERKALGLSVNEPLRSGTHARPGAPAPAMIVNAPTHAQEHAVEVQIPFLQTVLGPDLTIVPLNAGDATPQEVGDVLRALWGGPETVIVISSDLSHYHPHEVARALDDQTIADIAALHLPIHPRRACGAYPINGLLDVLKGRKDMRLFELGCSTSGDDGVVALAGQPRPAMRDADEPVVGYVSFAAWESKPEADALAGADDLGTSGTPSHGEVLLKLARAAIRERLHIEHPTAADSTASILAANPWLNEPGACFVTLTEGGRLRGCIGSLVAHRSLGKDVAEHAVDAATRDPRFTPVTAAEYPLLNVEVSVLGEPEPITVNSCDADSRGTGSKTATLASLQSGPQTDAVKRDGSNVERPVRSRTELEEVLRPGKDGLILADRRGRSATFLPQVWDELPDPHDFVAHLLAKAGIRPSYDWTDSEIDCQRYEVTAYAEH,failed
2,MVPEITIDVNVFPSPRKSSSNTVEINLKRESDDKCDDAPLFQITQLILKDVVNFDPHKTSPLLETIFPDSISGTRLCVEMALASERVPAPFDMYLHVTVRFVEESTSSSPLENKTCAICLEDMSQDVHDYQEMPNCPHVFHNDCIYKWLGHSNLCPLCRTVLEDEDDDDYPYYS,failed
3,MDIIRKISHFAGQTFGIWVIVFAVLGFSFPSLFTWISSYITIFLGIIMFGMGLTLQADDFKELVRKPWQVIIGVIAQYTIMPLVAFGLAFGLHLPAEIAVGVILVGCCPGGTASNVMTFLAKGNTALSVAVTTISTLLAPVVTPLLIMLFAKEWLPVSPGSLFISILQAVLFPIIAGLIVKMFFRKQVAKAVHALPLVSVIGIVAIVSAVVSGNRENLLQSGLLIFSVVILHNGIGYLLGFLCAKLLKMDYPSQKAIAIEVGMQNSGLGAALATAHFSPLSAVPSAIFSVWHNLSGSMLATYWSKKVKKKQAGSKSSNLSL,failed
4,MEVHAADQYLVAPGEADLLEVHARLAGTGLFPPFPPVELPGGVGGLVARGGFAQTFFFPAEVLGLTFRTPKGRRVRAGGVVVKNVQGYDLVRLFVGSFGLLGRAEEVVLRLRPGRAQAFLRRPFSGSFPRLVPTPRFLFALEDEEGPWLYAYHFGHPKEVERFREAFGGEEARPLDLRPRFPRGLGLGEGPLWDLRFRYQDGGASPPPPPAFLRLARVL,not failed
5,MSLRTKGNAELILQIDAYLPDTYISDQRHKIEIYKKIRQIDNRVNYEELQEELIDRFGEYPDVVAYLLEIGLVKSYLDKVFVQRVERKDNKITIQFEKVTQRLFLAQDYFKALSVTNLKAGIAENKGLMELVFDVQNKKDYEILEGLLIFGESLLEIKESKEKNSEGHHHHHH,not failed
6,MQIESFKSLLPKYKCIFFDAFGVLKTYNGLLPGIENTFDYLKAQGQDYYIVTNDASRSPEQLADSYHKLGLFSITADKIISSGMITKEYIDLKVDGGIVAYLGTANSANYLVSDGIKMLPVSAIDDSNIGEVNALVLLDDEGFNWFHDLNKTVNLLRKRTIPAIVANTDNTYPLTKTDVAIAIGGVATMIESILGRRFIRFGKPDSQMFMFAYDMLRQKMEISKREILMVGDTLHTDILGGNKFGLDTALVLTGNTRIDDAETKIKSTGIVPTHICESAVIEL,not failed
7,MFWDSSRLIKLIGFFCLLLAQPLHATILSSALLNEAQQLAEIEPAQAKQAAKNYLSQRELTERKESGSPSAMSREETDRSIRTPASTIEAHKIIAQADYTMGNVRSAIDNLNEAEKLAKEYQLPYMTLDVQLMRNQMIWMYDHNYSAAEDALNQIEKQLDEADSVLQRTDSVRYRLVMQRALLAAHRGDNVGAERLYAQAKSMLEDSRSDLALIDYYTSVGEFYLNSKKYNLALSELLYGYWQSIESDSGTRLAKVNRLLARLFQERRVYDKAIEYLSQAADFYDSYPSSPILADVLEQMGDIYFYQGKFNLALVHYFNVLDHESTSRNINRTIKIRLSLAATYLQLYNYALAEQYLERATELLEYADIPQLEAKAALLKSGLAYHQNDSKKVIENAKKALELVEKAPENKNFIKQQSYRLLGLGYEQAGEYQLSLQAYKKYTSLVRLEQKQLNQISEDAFRQQKEFAEQTIHYVGQSERLEQVEMEHRKFQKISFALFITVLVMFLFIMRRGVIMQRQAGEIEKLRNDLFTHSRSRLRNLRMLNVKLSRSLKKSRDTFEQWQMGELIHEPLNDRLRFVMIDLPFLRSMYVQNGYKAGLELERAFGEYLAERIEKPARLYHFSDANLLYIEPNADRDASAEVMFEKFQAWVDEFATQHNVNRIIRMGISDYPFLPRAYTAINDEELLDLLLLATHIAREVSLKDKQSHWVFLKAIDNAPAASFATGNIRTACQHAINQGLIKIHSSYKNEDDIKKILKNG,failed
8,MDQIFNKVGSYWLGQKANKQFDSVGNDLNSVSTSIEGGTKWLVNKIKGKMQKPLPELLKEYDLPIGIFPGDATNYEFDEETKKLTVLIPSICEVGYKDSSVLKFTTTVTGHLEKGKLTDVEGIKTKVMIWVKVTSISTDASKVYFTAGMKKSRSRDAYEVQRNGLRVDKF,not failed
9,MNLLIENIRGISYALVSPTLSLMLIVIAIIFYFKNRKIAFMQKLMLGRSIQSPLEMTLLQILIGILGGLIASLLLSILGVTFENSSLIDVILTVSVFSVLYKNRFLKFPYIAALLGVIGVLVSKNTEYFGRGFSFSINLTSIIVLIGVFSIVEGILAMIDGDKGYLPIFTQKDGKLVGGFGFKRFWALPLCLLVVLGANSGNSIINEVKDLPQWLPFFNGDKARALMSVAALGTLAAYGATSYEGTTFTQSKRSKTITSGLINIAYGIVVIILAYLLKESLVFTIALIILIPLLYELRIRMELKLESLREPLYFSNDDEICILDVLPNSIAYKKGLRSGDKIVKINEEIPKNEKEVFMAIKRNFYGLDLEIRKNNGNIEKHTITGEDRGKQFGIVLVPKGISFDKEIDEFLEKLKKASKDEEVKNK,failed
10,MFNFAVSRESLLSGFQWFFFIFCNTVVVPPTLLSAFQLPQSSLLTLTQYAFLATALACFAQAFCGHRRAIMEGPGGLWWGTILTITLGEASRGTPINDIATSLAVGIALSGVLTMLIGFSGLGHRLARLFTPSVMVLFMLMLGAQLTTIFFKGMLGLPFGIADPNFKIQLPPFALSVAVMCLVLAMIIFLPQRFARYGLLVGTITGWLLWYFCFPSSHSLSGELHWQWFPLGSGGALSPGIILTAVITGLVNISNTYGAIRGTDVFYPQQGAGNTRYRRSFVATGFMTLITVPLAVIPFSPFVSSIGLLTQTGDYTRRSFIYGSVICLLVALVPALTRLFCSIPLPVSSAVMLVSYLPLLFSALVFSQQITFTARNIYRLALPLFVGIFLMALPPVYLQDLPLTLRPLLSNGLLVGILLAVLMDNLIPWERIE,failed
11,MDGATLAEVMRQRGINMRYLGKVLDLVLRSPARDQLDHIYKIGIGELITRSAKHIFKTYLQGVELSGLSAAISHFLNCFLSSYPNPVAHLPADELLSKKRNKRRKNRPPGAADNTAWAVMTPQELWKNICHEAKNYFDFTLECDSVDQAVETYGLQKITLLREISLKTGIQILLKEYSFDSRHKPAFTEEDVLNIFPVVKHVNPKASDAFHFFQSGQAKVQQGFLKEGCELINEALNLFNNVYGAMHVEICACLRLLARLHYIMGDYAEALSNQQKAVLMSERVMGIEHPNTIQEYMHLALYCFASSQLSTALSLLYRARYLMLLVFGEDHPEMALLDNNIGLVLHGVMEYDLSLRFLENALAVTTKYHGPKALKVALSHHLVARVYESKAEFRSALQHEKEGYTIYKTQLGEDHEKTKESSEYLKCLTQQAVALQRTMNEIYRNGSSANIPPLKFTAPSMTSVLEQLNVINGILFIPLSQKDLENLKAEVARRHQLQEANRNRDKAEEQPMAPEPEPEPEPERAVEDMGSPQTAKEGPSSLNLQG,failed
12,MTTKLDQLTSWLKERKITEVECLISDLTGIARGKISPTNKFIAEKGMRLPESVLLQTVTGDYVEDDIYYDLLDPADIDMVCRPDENAVFLVPWAIEPTAMVIHDTFDKLGNPIELSPRNILKRVLKMYADKGWRPIVAPEMEFYLTKRSDDPDYPLQAPVGRSGRQETGRQSFSIDAANEFDPLFEDMYDWCEAQGLDLDTLIHEEGTAQMEINFRHGDALDLADQILVFKRTMREAALKHNVAATFMAKPMTGEPGSAMHLHQSIVDVKTGKNIFSNADGTMSELFLHHIGGLQKFIPEVLPLFAPNVNSFRRFLPDTSAPVNVEWGEENRTVGLRVPDSSPENRRVENRLAGADANPYLALAASLLCGYIGMVEGIKPSAQVKGRGYERRNLRLPLTIEAALERMENCKPLEQYLGSKFISGYVAVKRAEHENFKRVISSWEREFLLLS,failed
13,MTDNNQNNENHENSSENSKADEMRAGAFERFTNRKKRFRENAQKNAEYSNHEASSHHKKEHRPNKKPNNHHKQKHAKTRNYAQEELDSNKVEGVTEILHVNERGTLGFHKELKKGVEANNKIQVEHLNPHYKMNLNSKASVKITPLGGLGEIGGNMMVIETPKSAIVIDAGMSFPKEGLFGVDILIPDFSYLHQIKDKIAGIIITHAHEDHIGATPYLFKELQFPLYGTPLSLGLIGSKFDEHGLKKYRSYFKIVEKRCPISVGEFIIEWIHITHSIIDSSALAIQTKAGTIIHTGDFKIDHTPVDNLPTDLYRLAHYGEKGVMLLLSDSTNSHKSGTTPSESTIAPAFDTLFKEAQGRVIMSTFSSNIHRVYQAIQYGIKYNRKIAVIGRSMEKNLDIARELGYIHLPYQSFIEANEVAKYPDNEILIVTTGSQGETMSALYRMATDEHRHISIKPNDLVIISAKAIPGNEASVSAVLNFLIKKEAKVAYQEFDNIHVSGHAAQEEQKLMLRLIKPKFFLPVHGEYNHVARHKQTAISCGVPEKNIYLMEDGDQVEVGPAFIKKVGTIKSGKSYVDNQSNLSIDTSIVQQREEVASAGVFVATIFVNKNKQALLESSQFSSLGLVGFKDEKPLIKEIQGGLEVLLKSSNAEILNNPKKLEDHTRNFIRKALFKKFRKYPAIICHAHSF,failed
14,MSLGGNGREKDHASELRSIFSLKKIADAVNGYEEAKYVVFGIPFDNTSSYRRGSKYAPDSIRGAYVNLESYEYSYGIDLLASGMADLGDMEESEDVEYVIDTVESVVSAVMSDGKIPIMLGGEHSITVGAVRALPKDVDLVIVDAHSDFRSSYMGNKYNHACVTRRALDLLGEGRITSIGIRSVSREEFEDPDFRKVSFISSFDVKKNGIDKYIEEVDRKSRRVYISVDMDGIDPAYAPAVGTPEPFGLADTDVRRLIERLSYKAVGFDIVEFSPLYDNGNTSMLAAKLLQVFIASREKYYKEHIEGHHHHHH,not failed
15,METPNSTGGTPPTMRVSVVLCTHTMERYDDCRAAAESVLAQTYDDVELVLVSDGNRDVYKQYQSDFGNRDDVLTHCNDANVGLLESRNNGAEVATGDVVAFIDDDAIADEEWVAALVDAYEQQDALAVGGRMTPAWVAGKPSFLPAEFYWLIGVTHRGFGPNGDPDEPGVVRNTFGSNISFDRDVFLELGGFDDDIGGRQGEKNLQGGETELCARLRTEYDEGVYYTPEALVAHKIFDYRTDPGWLLDRAFWQGYSKRGMEVFVPESTGEESDFLSDLLFRFAPERIWGLVRAPSVAGVLQFVFLFALTAFVGFGYLYGMTVWG,failed
16,MSHFVHPNALCESDTIGEGTRVWAFAHVLPGARLGRDCNICDGVFIESDVVVGDRVTVKCGVQLWDGVRLGDDVFVGPNATFTNDLFPRSRVYPEKFLGTVVESGASIGANATILAGTTIGSGAMIGAGAVVTRSVPPNAIVVGNPARIVGYVSDKDATGSAPSPTGQGITDTAVPGVKLYRMPSFADMRGSLSVGDFETFLPFNAKRYFLVYGVPTQETRGEHAHKRCHQFLICVSGSVRVLADDGTRRIDVELNSPSQGIHLPPMIWGTQYKYSKDAVLLVFASESYDTDEYIRDYSDFKSLANAAR,failed
